In US20100196385A1 (AstraZeneca / MedImmune, published 2010):

Biological target: T1, full length human DLL4 (human, UniProt Q9NR61 27-685)
T1 construct: whole, on cells; also called native DLL4 expressed in HEK293 cells
Assay: FACS competition vs Notch1/Fc, HEK293 cells with human DLL4
Experimental: Further experiments were performed on selected antibodies using HEK293 cells that were stably transfected with either human, mouse or cynomolgus monkey DLL4 using retroviral constructs. In these experiments, anti-DLL4 antibodies (final concentration: 10-0.01 μg/ml) diluted in PBS containing 2% FCS were added to DLL4-expressing HEK 293 cells (50000 cells/well diluted in PBS containing 2% FCS) and incubated for 1 h at 4° C. Subsequently, Alexa-647 labeled human, rat or APC labeled mouse Notch1/Fc (e.g. R&D Systems, catalog #3647-TK-050, 1057-TK-050, 5267-TK-050, respectively) was added at a final concentration of 0.01-0.5 μg/ml and plates were incubated for a further 2 h at 4° C. prior to washing and reading on a FACSCalibur instrument.
The activity of the mutated antibodies was assessed in two ways: firstly, the ability of the antibodies to block the binding of soluble Notch1/Fc to full length human DLL4 stably expressed in HEK293 cells as described in Example 3 was determined and, secondly, the binding of the antibodies to the same cell line used in the receptor-ligand competition studies was determined. For the binding studies, HEK293 cells stably overexpressing human DLL4 were resuspended in PBS containing 2% FCS at a concentration of 50,000 cells/well and incubated with titrations of antibody (final concentrations 0.01-10 μg/ml) for 1 h at 4° C. The cells were then washed and incubated with 0.31 μg/ml anti-human IgG-Fc-FITC (BD Pharmingen, cat#555786) for 30 minutes at 4° C. Bound […] was detected using FACS analysis. Results of these studies are summarized in Table 23, which show the effects of specific mutations to sequences of 9G8 and 2H10 on the ability of the antibodies to compete with Notch1 for binding to human DLL4 or to bind to human DLL4 relative to unmutated antibodies.

T1 sequence (Q9NR61 27-685): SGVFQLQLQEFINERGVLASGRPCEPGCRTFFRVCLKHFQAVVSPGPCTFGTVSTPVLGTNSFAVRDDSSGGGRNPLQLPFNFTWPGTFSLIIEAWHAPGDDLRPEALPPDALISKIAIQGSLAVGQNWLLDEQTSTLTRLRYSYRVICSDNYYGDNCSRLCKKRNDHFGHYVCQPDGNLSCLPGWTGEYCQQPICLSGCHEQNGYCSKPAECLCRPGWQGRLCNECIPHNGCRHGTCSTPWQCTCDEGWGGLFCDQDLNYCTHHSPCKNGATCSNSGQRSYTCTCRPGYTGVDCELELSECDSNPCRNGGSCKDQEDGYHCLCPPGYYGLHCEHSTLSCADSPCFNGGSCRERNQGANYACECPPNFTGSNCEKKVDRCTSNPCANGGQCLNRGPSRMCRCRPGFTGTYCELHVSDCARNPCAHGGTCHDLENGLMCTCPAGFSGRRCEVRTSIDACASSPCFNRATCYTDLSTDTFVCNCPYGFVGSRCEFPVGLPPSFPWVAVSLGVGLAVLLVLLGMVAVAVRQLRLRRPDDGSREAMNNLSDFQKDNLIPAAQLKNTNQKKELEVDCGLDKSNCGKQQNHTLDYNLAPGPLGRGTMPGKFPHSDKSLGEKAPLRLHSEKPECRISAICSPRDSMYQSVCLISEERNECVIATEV

| Binder | IC50 [µg/mL] |
| --- | --- |
| 2H10 IgG2 VH M93V/VL C33S (antibody, V domains shown, IgG2) VH: QVQLVESGGGVVQPGRSLRLSCAASGFTFSRHGMHWVRQAPGKGLEWVAVVWFDGSNIYYADSVKGRFTISRDNSKNTLYLQMNSLRAEDTAVYYCARDSRIAAADYWGQGTLVTVSS VL: SYELTQPPSVSVSPGQTVSITCSGDKLGDKYVSWYQQKPGQSPVLVIYQESKRPSGIPERFSGSSSGNTATLTISGTQAMDEADYYCQTWDSSLVVFGGGTKLTVL | 0.138 |
| 2H10 IgG2 VH wt/VL C33A (antibody, V domains shown, IgG2) VH: QVQLVESGGGVVQPGRSLRLSCAASGFTFSRHGMHWVRQAPGKGLEWVAVVWFDGSNIYYADSVKGRFTISRDNSKNTLYLQMNSLRAEDTAMYYCARDSRIAAADYWGQGTLVTVSS VL: SYELTQPPSVSVSPGQTVSITCSGDKLGDKYVAWYQQKPGQSPVLVIYQESKRPSGIPERFSGSSSGNTATLTISGTQAMDEADYYCQTWDSSLVVFGGGTKLTVL | 0.174 |
| 2H10 IgG2 VH wt/VL C33D (antibody, V domains shown, IgG2) VH: QVQLVESGGGVVQPGRSLRLSCAASGFTFSRHGMHWVRQAPGKGLEWVAVVWFDGSNIYYADSVKGRFTISRDNSKNTLYLQMNSLRAEDTAMYYCARDSRIAAADYWGQGTLVTVSS VL: SYELTQPPSVSVSPGQTVSITCSGDKLGDKYVDWYQQKPGQSPVLVIYQESKRPSGIPERFSGSSSGNTATLTISGTQAMDEADYYCQTWDSSLVVFGGGTKLTVL | 0.178 |
| 2H10 IgG2 VH M93V/VL wt (antibody, V domains shown, IgG2) VH: QVQLVESGGGVVQPGRSLRLSCAASGFTFSRHGMHWVRQAPGKGLEWVAVVWFDGSNIYYADSVKGRFTISRDNSKNTLYLQMNSLRAEDTAVYYCARDSRIAAADYWGQGTLVTVSS VL: SYELTQPPSVSVSPGQTVSITCSGDKLGDKYVCWYQQKPGQSPVLVIYQESKRPSGIPERFSGSSSGNTATLTISGTQAMDEADYYCQTWDSSLVVFGGGTKLTVL | 0.264 |
| 2H10 IgG2 VH wt/VL C33G (antibody, V domains shown, IgG2) VH: QVQLVESGGGVVQPGRSLRLSCAASGFTFSRHGMHWVRQAPGKGLEWVAVVWFDGSNIYYADSVKGRFTISRDNSKNTLYLQMNSLRAEDTAMYYCARDSRIAAADYWGQGTLVTVSS VL: SYELTQPPSVSVSPGQTVSITCSGDKLGDKYVGWYQQKPGQSPVLVIYQESKRPSGIPERFSGSSSGNTATLTISGTQAMDEADYYCQTWDSSLVVFGGGTKLTVL | 0.314 |

The remaining lines, values ahead:

| IC50 [µg/mL] | Binder |
| --- | --- |
| 2.97 | 2H10 IgG2 VH wt/VL C33R (antibody, V domains shown, IgG2) VH: QVQLVESGGGVVQPGRSLRLSCAASGFTFSRHGMHWVRQAPGKGLEWVAVVWFDGSNIYYADSVKGRFTISRDNSKNTLYLQMNSLRAEDTAMYYCARDSRIAAADYWGQGTLVTVSS VL: SYELTQPPSVSVSPGQTVSITCSGDKLGDKYVRWYQQKPGQSPVLVIYQESKRPSGIPERFSGSSSGNTATLTISGTQAMDEADYYCQTWDSSLVVFGGGTKLTVL |
| 0.302 | 9G8 IgG2 VH wt/VL C33A (antibody, V domains shown, IgG2) VH: QLQLQESGPGLVKPSETLSLSCTVSGGSISSSSSYWGLIRQPPGKGLEWIGSIYYSGSTYYSPSLKSRVSISVDTSKNQFSLKLSSVTAADTAVYFCARQGYGGHPDVFDIWGQGTMVTVSS VL: SSELTQSPSVSVSPGQTARITCSGDKLGDVYVAWYQQKTGQSPVLVIYEDTKRPSGIPERFSGSNSGNTATLTISGTQVMDEADYYCQAWDSTTAVIFGGGTKLTVL |
| 0.345 | 9G8 IgG2 VH wt/VL C33D (antibody, V domains shown, IgG2) VH: QLQLQESGPGLVKPSETLSLSCTVSGGSISSSSSYWGLIRQPPGKGLEWIGSIYYSGSTYYSPSLKSRVSISVDTSKNQFSLKLSSVTAADTAVYFCARQGYGGHPDVFDIWGQGTMVTVSS VL: SSELTQSPSVSVSPGQTARITCSGDKLGDVYVDWYQQKTGQSPVLVIYEDTKRPSGIPERFSGSNSGNTATLTISGTQVMDEADYYCQAWDSTTAVIFGGGTKLTVL |
| 0.358 | 9G8 IgG2 VH wt/VL C33G (antibody, V domains shown, IgG2) VH: QLQLQESGPGLVKPSETLSLSCTVSGGSISSSSSYWGLIRQPPGKGLEWIGSIYYSGSTYYSPSLKSRVSISVDTSKNQFSLKLSSVTAADTAVYFCARQGYGGHPDVFDIWGQGTMVTVSS VL: SSELTQSPSVSVSPGQTARITCSGDKLGDVYVGWYQQKTGQSPVLVIYEDTKRPSGIPERFSGSNSGNTATLTISGTQVMDEADYYCQAWDSTTAVIFGGGTKLTVL |
| 0.201 | 9G8 IgG2 VH wt/VL C33R (antibody, V domains shown, IgG2) VH: QLQLQESGPGLVKPSETLSLSCTVSGGSISSSSSYWGLIRQPPGKGLEWIGSIYYSGSTYYSPSLKSRVSISVDTSKNQFSLKLSSVTAADTAVYFCARQGYGGHPDVFDIWGQGTMVTVSS VL: SSELTQSPSVSVSPGQTARITCSGDKLGDVYVRWYQQKTGQSPVLVIYEDTKRPSGIPERFSGSNSGNTATLTISGTQVMDEADYYCQAWDSTTAVIFGGGTKLTVL |
| 0.32 | 9G8 IgG2 VH wt/VL C33Y (antibody, V domains shown, IgG2) VH: QLQLQESGPGLVKPSETLSLSCTVSGGSISSSSSYWGLIRQPPGKGLEWIGSIYYSGSTYYSPSLKSRVSISVDTSKNQFSLKLSSVTAADTAVYFCARQGYGGHPDVFDIWGQGTMVTVSS VL: SSELTQSPSVSVSPGQTARITCSGDKLGDVYVYWYQQKTGQSPVLVIYEDTKRPSGIPERFSGSNSGNTATLTISGTQVMDEADYYCQAWDSTTAVIFGGGTKLTVL |
